This is an account of results in doi:10.1101/2021.07.09.451751v1.

B1: histidine-tagged human MLH1 NTD (Homo sapiens; K311E) (protein)
chain: MSFVAGVIRRLDETVVNRIAAGEVIQRPANAIKEMIENCLDAKSTSIQVIVKEGGLKLIQIQDNGTGIRKEDLDIVCERFTTSKLQSFEDLASISTYGFRGEALASISHVAHVTITTKTADGKCAYRASYSDGKLKAPPKPCAGNQGTQITVEDLFYNIATRRKALKNPSEEYGKILEVVGRYSVHNAGISFSVKKQGETVADVRTLPNASTVDNIRSIFGNAVSRELIEIGCEDKTLAFKMNGYISNANYSVKKCIFLLFINHRLVESTSLRKAIETVYAAYLPKNTHPFLYLSLEISPQNVDVNVHPTEHEVHFLHEESILERVQQHIESKLLG
B2: histidine-tagged human MLH1 NTD (Homo sapiens) (protein)
chain: B1 chain with E311K
B3: ProS2-fused human PMS2 NTD (Homo sapiens; K91R) (protein)
chain: MERAESSSTEPAKAIKPIDRKSVHQICSGQVVLSLSTAVKELVENSLDAGATNIDLKLKDYGVDLIEVSDNGCGVEEENFEGLTLKHHTSRIQEFADLTQVETFGFRGEALSSLCALSDVTISTCHASAKVGTRLMFDHNGKIIQKTPYPRPRGTTVSVQQLFSTLPVRHKEFQRNIKKEYAKMVQVLHAYCIISAGIRVSCTNQLGQGKRQPVVCTGGSPSIKENIGSVFGQKQLQSLIPFVQLPPSDSVCEEYGLSCSDALHNLFYISGFISQCTHGVGRSSTDRQFFFINRRPCDPAKVCRLVNEVYHMYNRHQYPFVVLNISVDSECVDINVTPDKRQILLQEEKLLLAVLKTSLIGMFDS
B4: ProS2-fused human PMS2 NTD (Homo sapiens; K340E) (protein)
chain: B3 chain with R91K, K340E
B5: ProS2-fused human PMS2 NTD (Homo sapiens; K340A) (protein)
chain: B3 chain with R91K, K340A
B6: ProS2-fused human PMS2 NTD (Homo sapiens) (protein)
chain: B3 chain with R91K
B7: aqGyrB NTD (Aquifex aeolicus VF5) (protein)
chain: MKKRQSQTPQEYTAEAIKAVSGLEHVRLRPAMYIGDIGERGLHHLIWEILDNAVDEAVAGYARNISVTIHRDNSVTVEDDGRGIPVDIHPETGKPAVEMVFTMLGAGGKFEKKVYTYSGGLHGVGASVVNALSEWLIVEVYRDGKIYRMAFKRGEVVEPLHVVGETKKRGTKVSFKPDPEIFETTEIKFDIVEKRVRELAYLNPEVKFELTDERLGKHLIYKFDRGIEELVKYLNEGKEPLFKDIIRIQGEKEGVIVDIAFQYVKDYKERIESFVNNIKTVEGGTHVTGFRSGLSKAVIRMAQGLKLAKELKKSFTGEDVREGLTAVVACKVPNPQFEGQTKTKLGNQNVKQIVESITYDFLTSYFEKKRDVLKAIVEKAIEAALAREAAKKAKELV
B8: full-length aqMutL (Aquifex aeolicus VF5) (protein)
chain: MFVKLLPPEVRKVIAAGEVIESPVDVVKELVENSLDAKATKVEVEIVKGGKRLIRVKDNGTGIHPEDVEKVVLQGATSKIETEKDLMNISTYGFRGEALYSISSVSKFKLRSRFFQEKEGKEIEVEAGNILGTRRVGMPVGTEVEVRDLFFNLPVRRKFLKKEDTERRKVLELIKEYALTNPEVEFTLFSEGRETLKLKKSSLKERVEEVFQTKTEELYAEREGITLRAFVSRNQRQGKYYVFINKRPIQNKNLKEFLRKVFGYKTLVVLYAELPPFMVDFNVHPKKKEVNILKERKFLELVRELAGKEKPIVDIPLSQPVKTYKPTYEILGQMDETFILVKDSEYLYFVDQHLLEERINYEKLKDENLACRISVKAGQKLSEEKIRELIKTWRNLENPHVCPHGRPIYYKIPLREIYEKVGRNY
B9: full-length aqMutL (Aquifex aeolicus VF5; K79R) (protein)
chain: B8 chain with K79R
B10: full-length aqMutL (Aquifex aeolicus VF5; K28E) (protein)
chain: B8 chain with K28E
B11: full-length aqMutL (Aquifex aeolicus VF5; N282A) (protein)
chain: B8 chain with N282A
B12: full-length aqMutL (Aquifex aeolicus VF5; K287A) (protein)
chain: B8 chain with K287A

Substitutions are numbered along the chain they refer to. In names and notes the source's numbering stands.

Substrate in one series: Nc1ncnc2c1ncn2[C@@H]1O[C@H](COP(=O)(O)OP(=O)(O)OP(=O)(O)O)[C@@H](O)[C@H]1O
Put plainly: phosphate release, BIOMOL Green. Format: biochemical, Homo sapiens. Particulars: 50 mM HEPES-KOH pH 7.5, 100 mM NaCl, 5 mM MgCl2, 37 °C.
For the protein B1, the Km amounted to 750 ± 130 µM and the kcat stood at 0.000333 ± 5e-05 s⁻¹.

Take B2: the Km turned out to be 790 ± 75 µM and the kcat is 0.00267 ± 0.000108 s⁻¹.

On to B3, for which the Km came to 300 ± 42 µM and the kcat came to 0.000733 ± 2.83e-05 s⁻¹.

For the protein B4, the Km amounted to 80 ± 12 µM and the kcat came out at 0.000483 ± 3e-05 s⁻¹.

With B5, the Km was 160 ± 93 µM and the kcat is 0.00105 ± 0.000135 s⁻¹.

B6: the Km is 190 ± 39 µM and the kcat came to 0.00617 ± 0.0003 s⁻¹.

Substrate in the next series: Nc1ncnc2c1ncn2[C@@H]1O[C@H](COP(=O)(O)OP(=O)(O)OP(=O)(O)O)[C@@H](O)[C@H]1O
In words: phosphate release, BIOMOL Green. It is filed as biochemical, Aquifex aeolicus. Conditions: 50 mM HEPES-KOH pH 7.5, 100 mM NaCl, 5 mM MgCl2, 70 °C.
Take B7: the Km was 250 ± 41 µM and the kcat was 0.0367 ± 0.00217 s⁻¹.

Take B8: the Km amounted to 360 ± 190 µM and the turnover number (kcat) was 0.025 ± 0.0025 s⁻¹.

As for B9, the Km was determined as 610 ± 130 µM and the kcat came to 0.00283 ± 0.000233 s⁻¹.

Take B10: the Km stood at 900 ± 73 µM and the kcat was 0.00733 ± 0.000367 s⁻¹.

Consider B11, for which the Michaelis-Menten constant (Km) turned out to be 560 ± 54 µM and the kcat was determined as 0.000483 ± 1.67e-05 s⁻¹.

In the case of B12, the Michaelis-Menten constant (Km) came to 370 ± 36 µM and the kcat was 0.00767 ± 0.000383 s⁻¹.
